In the supplement of paper PMC11316812:
± gives the standard deviation of the averaged measurements.

Assays:
hTERT-HMEC = assay: percentage of EdU-negative (G0-arrested) nuclei per well, 72 h; higher = more G0 arrest; conditions: reference: sequence is the full UniProt precursor, the tested protein was the secreted form or ectodomain
MCF7 = assay: as above; conditions: reference: sequence is the full UniProt precursor, the tested protein was the secreted form or ectodomain
[1] = protein concentration 0.0225 µM
[2] = protein concentration 0.03125 µM
[3] = protein concentration 0.3125 µM
[4] = protein concentration 0.00975 µM
[5] = protein concentration 0.0975 µM
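Also: secreted proteins added to cultured cells, EdU pulse at the end, nuclei found by Hoechst imaging, EdU status from nuclear versus surrounding ring intensity ratio, PBS as neutral control.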

**Q.** For “MLQGTCSVLLLWGILGAIQAQQQEVISPDTTERNNNCPEKTDCPIHVYFVLDTSESVTMQSPTDILLFHMKQFVPQFISQLQNEFYLDQVALSWRYGGLHFSDQVEVFSPPGSDRASFIKNLQGISSFRRGTFTDCALANMTEQIRQDRSKGTVHFAVVITDGHVTGSPCGGIKLQAERAREEGIRLFAVAPNQNLKEQGLRDIASTPHELYRNDYATMLPDSTEIDQDTINRIIKVMKHEAYGECYKVSCLEIPGPSGPKGYRGQKGAKGNMGEPGEPGQKGRQGDPGIEGPIGFPGPKGVPGFKGEKGEFGADGRKGAPGLAGKNGTDGQKGKLGRIGPPGCKGDPGNRGPDGYPGEAGSPGERGDQGGKGDPGRPGRRGPPGEIGAKGSKGYQGNSGAPGSPGVKGAKGGPGPRGPKGEPGRRGDPGTKGSPGSDGPKGEKGDPGPEGPRGLAGEVGNKGAKGDRGLPGPRGPQGALGEPGKQGSRGDPGDAGPRGDSGQPGPKGDPGRPGFSYPGPRGAPGEKGEPGPRGPEGGRGDFGLKGEPGRKGEKGEPADPGPPGEPGPRGPRGVPGPEGEPGPPGDPGLTECDVMTYVRETCGCCDCEKRCGALDVVFVIDSSESIGYTNFTLEKNFVINVVNRLGAIAKDPKSETGTRVGVVQYSHEGTFEAIQLDDERIDSLSSFKEAVKNLEWIAGGTWTPSALKFAYDRLIKESRRQKTRVFAVVITDGRHDPRDDDLNLRALCDRDVTVTAIGIGDMFHEKHESENLYSIACDKPQQVRNMTLFSDLVAEKFIDDMEDVLCPDPQIVCPDLPCQTELSVAQCTQRPVDIVFLLDGSERLGEQNFHKARRFVEQVARRLTLARRDDDPLNARVALLQFGGPGEQQVAFPLSHNLTAIHEALETTQYLNSFSHVGAGVVHAINAIVRSPRGGARRHAELSFVFLTDGVTGNDSLHESAHSMRKQNVVPTVLALGSDVDMDVLTTLSLGDRAAVFHEKDYDSLAQPGFFDRFIRWIC”, which “percentage of EdU-negative” value (hTERT-HMEC; protein concentration 0.013 µM) is on record?
**A.** 6.76 ± 1.4%

**Q.** And the “percentage of EdU-negative” value (hTERT-HMEC; protein concentration 0.13 µM)?
**A.** 50.9 ± 9.9%

**Q.** What about the “percentage of EdU-negative” value (MCF7; protein concentration 0.013 µM) of the same sequence?
**A.** 27.1 ± 0.99%

**Q.** And the “percentage of EdU-negative” value (MCF7; protein concentration 0.13 µM)?
**A.** 27.7 ± 1.8%

**Q.** Which results are given for “MIIVAHVLLILLGATEILQADLLPDEKISLLPPVNFTIKVTGLAQVLLQWKPNPDQEQRNVNLEYQVKINAPKEDDYETRITESKCVTILHKGFSASVRTILQNDHSLLASSWASAELHAPPGSPGTSIVNLTCTTNTTEDNYSRLRSYQVSLHCTWLVGTDAPEDTQYFLYYRYGSWTEECQEYSKDTLGRNIACWFPRTFILSKGRDWLAVLVNGSSKHSAIRPFDQLFALHAIDQINPPLNVTAEIEGTRLSIQWEKPVSAFPIHCFDYEVKIHNTRNGYLQIEKLMTNAFISIIDDLSKYDVQVRAAVSSMCREAGLWSEWSQPIYVGNDEHKPLREWFVIVIMATICFILLILSLICKICHLWIKLFPPIPAPKSNIKDLFVTTNYEKAGSSETEIEVICYIEKPGVETLEDSVF”?
**A.** percentage of EdU-negative (hTERT-HMEC; [1]): 4.86 ± 0.92%; percentage of EdU-negative (hTERT-HMEC; protein concentration 0.225 µM): 5.18 ± 0.52%; percentage of EdU-negative (MCF7; [1]): 25.4 ± 1.1%; percentage of EdU-negative (MCF7; protein concentration 0.225 µM): 25.9 ± 1.3%

**Q.** “MVSRMVSTMLSGLLFWLASGWTPAFAYSPRTPDRVSEADIQRLLHGVMEQLGIARPRVEYPAHQAMNLVGPQSIEGGAHEGLQHLGPFGNIPNIVAELTGDNIPKDFSEDQGYPDPPNPCPVGKTADDGCLENTPDTAEFSREFQLHQHLFDPEHDYPGLGKWNKKLLYEKMKGGERRKRRSVNPYLQGQRLDNVVAKKSVPHFSDEDKDPE” was tested. Which “percentage of EdU-negative” value (hTERT-HMEC; [1]) did it give?
**A.** 5.414 ± 0.019%

**Q.** And the “percentage of EdU-negative” value (hTERT-HMEC; protein concentration 0.225 µM)?
**A.** 5.28 ± 0.35%

**Q.** And the “percentage of EdU-negative” value (MCF7; [1])?
**A.** 26.6 ± 1.8%

**Q.** And the “percentage of EdU-negative” value (MCF7; protein concentration 0.225 µM)?
**A.** 25.7 ± 2.2%

**Q.** For “MDSDETGFEHSGLWVSVLAGLLLGACQAHPIPDSSPLLQFGGQVRQRYLYTDDAQQTEAHLEIREDGTVGGAADQSPESLLQLKALKPGVIQILGVKTSRFLCQRPDGALYGSLHFDPEACSFRELLLEDGYNVYQSEAHGLPLHLPGNKSPHRDPAPRGPARFLPLPGLPPALPEPPGILAPQPPDVGSSDPLSMVGPSQGRSPSYAS [Q9NSA1]”, which “percentage of EdU-negative” value (hTERT-HMEC; [2]) is on record?
**A.** 4.59 ± 0.26%

**Q.** And the “percentage of EdU-negative” value (hTERT-HMEC; [3])?
**A.** 5.63 ± 0.48%

**Q.** And the “percentage of EdU-negative” value (MCF7; [2])?
**A.** 25 ± 1.2%

**Q.** What about the “percentage of EdU-negative” value (MCF7; [3]) of the same sequence?
**A.** 23.9 ± 1.2%

**Q.** Which results are given for “MVAATVAAAWLLLWAAACAQQEQDFYDFKAVNIRGKLVSLEKYRGSVSLVVNVASECGFTDQHYRALQQLQRDLGPHHFNVLAFPCNQFGQQEPDSNKEIESFARRTYSVSFPMFSKIAVTGTGAHPAFKYLAQTSGKEPTWNFWKYLVAPDGKVVGAWDPTVSVEEVRPQITALVRKLILLKREDL [Q96SL4]”?
**A.** percentage of EdU-negative (hTERT-HMEC; [4]): 4.59 ± 0.052%; percentage of EdU-negative (hTERT-HMEC; [5]): 5.66 ± 0.28%; percentage of EdU-negative (MCF7; [4]): 25.2 ± 2%; percentage of EdU-negative (MCF7; [5]): 27.1 ± 1.4%

**Q.** “MALLPVLFLVTVLLPSLPAEGKDPAFTALLTTQLQVQREIVNKHNELRKAVSPPASNMLKMEWSREVTTNAQRWANKCTLQHSDPEDRKTSTRCGENLYMSSDPTSWSSAIQSWYDEILDFVYGVGPKSPNAVVGHYTQLVWYSTYQVGCGIAYCPNQDSLKYYYVCQYCPAGNNMNRKNTPYQQGTPCAGCPDDCDKGLCTNSCQYQDLLSNCDSLKNTAGCEHELLKEKCKATCLCENKIY” was tested. Which “percentage of EdU-negative” value (hTERT-HMEC; [2]) did it give?
**A.** 5.26 ± 0.72%

**Q.** What about the “percentage of EdU-negative” value (hTERT-HMEC; [3]) of the same sequence?
**A.** 6.12 ± 1.6%

**Q.** And the “percentage of EdU-negative” value (MCF7; [2])?
**A.** 26.4 ± 1.6%

**Q.** What about the “percentage of EdU-negative” value (MCF7; [3]) of the same sequence?
**A.** 25 ± 1.1%
